Experimental data from paper PMC5167418, “A Novel Functional Domain of Tab2 Involved in the Interaction with Estrogen Receptor Alpha in Breast Cancer Cells” (PLoS ONE, 2016).

Columns and labels:
Recombinant human ERα [1] = target: T1, Recombinant human ERα (human, UniProt P03372 1-595)
T1 construct: recombinant human ERα, bought; also called recombinant hERα; source: bought: Life Technologies
T1 sequence (looked up): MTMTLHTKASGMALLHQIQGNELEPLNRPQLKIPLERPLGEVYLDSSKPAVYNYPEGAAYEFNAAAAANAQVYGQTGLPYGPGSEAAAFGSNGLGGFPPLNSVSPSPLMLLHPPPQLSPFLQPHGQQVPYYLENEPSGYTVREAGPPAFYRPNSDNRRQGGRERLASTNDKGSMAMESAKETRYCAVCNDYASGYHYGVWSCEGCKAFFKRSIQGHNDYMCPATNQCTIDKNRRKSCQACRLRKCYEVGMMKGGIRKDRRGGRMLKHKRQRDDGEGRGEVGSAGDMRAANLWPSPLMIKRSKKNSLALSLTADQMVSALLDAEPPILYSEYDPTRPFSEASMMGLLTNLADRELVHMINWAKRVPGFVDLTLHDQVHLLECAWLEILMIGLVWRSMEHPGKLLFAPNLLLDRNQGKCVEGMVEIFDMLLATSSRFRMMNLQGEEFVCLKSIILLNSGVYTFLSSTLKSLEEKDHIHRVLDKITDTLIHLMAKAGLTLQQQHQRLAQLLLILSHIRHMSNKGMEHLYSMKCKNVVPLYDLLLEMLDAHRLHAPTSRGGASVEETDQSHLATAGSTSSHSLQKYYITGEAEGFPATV

Recombinant human ERα [2] = target: T1, Recombinant human ERα; assay: pull-down; competition screening: MBP-Tab2(406–531) and recombinant hERα (1 nM) with or without in vitro translated fragments of Tab2(406–531); the pair that is blocked; settings: both partners purified
Recombinant human ERα [3] = target: T1, Recombinant human ERα; assay: pull-down; competition: 10 μg MBP-Tab2(406–531) preincubated 1 h at 4°C with synthetic Tab2 peptides (10 μM each, or Tab2-pept3 100 nM to 10 μM), then recombinant hERα (1 nM) 1.5 h at 4°C, amylose resin, immunoblot; settings: both partners purified

In the case of “TAT-Tab2-pept3 (from UniProt Q9NYJ8 480-496) (peptide)”, the proliferation (bromo-deoxyuridine incorporation) of MCF7 TamR cells in 1 μM 4OHT, peptide 1 to 100 μM, 24 h; the peptide is meant to interfere with Tab2/ERα (Recombinant human ERα [1]) is reported as 50 to 70 µM.

B1: MBP-Tab2(406–531) (domain or fragment, human, UniProt Q9NYJ8 406-531, looked up)
chain: TLFISTNSGASAASRNMSGQVSMGPAFIHHHPPKSRAIGNNSATSPRVVVTQPNTKYTFKITVSPNKPPAVSPGVVSPTFELTNLLNHPDHYVETENIQHLTDPTLAHVDRISETRKLSMGSDDAA
notes: human Tab2, aa 406–531 (central domain); also called MBP-406-531Tab2; 406-531Tab2; source: bacteria, purified MBP fusion (pMALc2)
B1: binds (Recombinant human ERα [2]).

B2: Tab2-pept3 (peptide, UniProt Q9NYJ8 480-496, looked up)
peptide: VVSPTFELTNLLNHPDH
notes: 17-aa synthetic peptide mimicking aa; 480–496 of human Tab2, a portion of Fragment 4; includes the LTNLL motif; also called Tab2 mimic peptide; SRID peptide; source: synthetic peptide (microwave-assisted synthesis, RP-HPLC purified)
B2: binds (Recombinant human ERα [3]).
